Key:
ETS2 = target: T1, ETS2 (Homo sapiens, UniProt P15036 1-469); assay: BLI (OCTET); EMSA: 25 mM HEPES pH 8.0, 100 mM NaCl, 50 mM KAc, 5 mM MgCl2, 5% glycerol, 1 mM DTT, 0.1 mg/mL BSA, ~22 C, 5 nM probe; OCTET: 50 mM HEPES pH 8.0, 100 mM NaCl, 50 mM KAc, 5 mM MgCl2, 40 mM glutathione, 5 mg/mL BSA, 0.05% Tween-20; details: protein: recombinant; tags: N-terminal GST; label: 5' biotin on strand 2 (Bio-T7 primer); blunt
T1 sequence: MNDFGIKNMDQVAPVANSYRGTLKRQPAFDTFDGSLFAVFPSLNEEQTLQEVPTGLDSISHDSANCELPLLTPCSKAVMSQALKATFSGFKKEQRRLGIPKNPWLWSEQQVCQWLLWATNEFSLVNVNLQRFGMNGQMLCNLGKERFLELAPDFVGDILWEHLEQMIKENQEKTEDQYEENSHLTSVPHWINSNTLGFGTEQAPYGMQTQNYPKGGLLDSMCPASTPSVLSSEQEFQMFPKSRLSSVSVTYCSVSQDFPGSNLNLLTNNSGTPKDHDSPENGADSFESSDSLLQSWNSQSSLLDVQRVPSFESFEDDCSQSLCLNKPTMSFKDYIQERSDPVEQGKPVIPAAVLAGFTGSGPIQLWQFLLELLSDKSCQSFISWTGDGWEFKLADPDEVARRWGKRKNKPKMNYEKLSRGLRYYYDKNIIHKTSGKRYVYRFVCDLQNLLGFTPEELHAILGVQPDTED

SPDEF = target: T2, SPDEF (Homo sapiens, UniProt O95238 1-335); assay: as above; details: protein: recombinant; tags: N-terminal GST; label: 5' biotin on strand 2 (Bio-T7 primer); blunt
T2 sequence: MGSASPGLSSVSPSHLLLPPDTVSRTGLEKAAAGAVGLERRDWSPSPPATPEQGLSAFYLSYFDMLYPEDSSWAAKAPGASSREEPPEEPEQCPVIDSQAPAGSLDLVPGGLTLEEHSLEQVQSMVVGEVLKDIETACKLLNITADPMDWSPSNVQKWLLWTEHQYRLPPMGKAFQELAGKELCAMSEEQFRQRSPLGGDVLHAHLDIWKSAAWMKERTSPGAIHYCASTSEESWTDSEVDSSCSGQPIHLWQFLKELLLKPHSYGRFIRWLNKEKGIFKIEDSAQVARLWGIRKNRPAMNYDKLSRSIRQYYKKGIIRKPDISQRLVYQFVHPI

B1: ETS family probe (dsDNA)
DNA 1: ACTTCCGGTTATAGTGAGTGCTATTA
DNA 2: TAATAGCACTCACTATAACCGGAAGT
Kd (ETS2): 0.0018 µM | Kd (SPDEF): 0.132 µM

Reference: PMC7862700, “An all-to-all approach to the identification of sequence-specific readers for epigenetic DNA modifications on cytosine”
